In US20240158489A1 (published 2024) one finds Kd data, which are given here for two molecules.

Test in all cases: -; FIG. 2B
Assay [1] deals with T1, rat ANG2 (rat, UniProt O35462 19-496).
T1 chain: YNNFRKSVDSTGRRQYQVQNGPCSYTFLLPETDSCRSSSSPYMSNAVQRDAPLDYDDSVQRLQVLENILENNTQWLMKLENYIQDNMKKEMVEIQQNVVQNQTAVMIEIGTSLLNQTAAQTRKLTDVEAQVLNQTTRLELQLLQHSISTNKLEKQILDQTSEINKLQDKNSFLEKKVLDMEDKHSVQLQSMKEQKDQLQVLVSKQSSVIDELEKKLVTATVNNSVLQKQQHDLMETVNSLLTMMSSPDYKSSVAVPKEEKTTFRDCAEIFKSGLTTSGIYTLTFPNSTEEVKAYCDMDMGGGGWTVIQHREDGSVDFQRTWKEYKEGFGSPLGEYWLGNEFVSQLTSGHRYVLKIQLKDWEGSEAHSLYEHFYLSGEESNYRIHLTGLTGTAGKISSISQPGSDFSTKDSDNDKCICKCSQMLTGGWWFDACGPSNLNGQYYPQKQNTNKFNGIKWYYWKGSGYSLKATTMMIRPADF

The target of assay [2] is T2, rabbit ANG2 (rabbit, UniProt G1T9B3 19-496).
T2 chain: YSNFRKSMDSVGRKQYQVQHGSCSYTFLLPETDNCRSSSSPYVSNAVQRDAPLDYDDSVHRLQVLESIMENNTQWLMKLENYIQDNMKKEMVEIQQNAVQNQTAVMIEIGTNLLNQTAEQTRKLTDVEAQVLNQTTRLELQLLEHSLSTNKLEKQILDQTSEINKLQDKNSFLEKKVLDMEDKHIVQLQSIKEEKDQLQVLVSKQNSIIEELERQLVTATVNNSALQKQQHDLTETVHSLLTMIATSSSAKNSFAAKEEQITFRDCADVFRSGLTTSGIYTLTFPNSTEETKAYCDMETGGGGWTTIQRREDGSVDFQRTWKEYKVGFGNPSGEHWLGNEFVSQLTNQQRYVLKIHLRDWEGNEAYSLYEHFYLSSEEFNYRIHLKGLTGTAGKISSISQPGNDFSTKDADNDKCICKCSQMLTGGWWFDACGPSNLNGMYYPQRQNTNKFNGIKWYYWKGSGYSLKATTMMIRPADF

The target of assay [3] is Rabbit VEGF 165.
The target of assay [4] is Cyno ANG-2 (monkey).
The target of assay [5] is Rat VEGF164.

B1: anti-ANG-2×VEGF bispecific antibody ABP201 (bispecific antibody)
heavy: EVQLLESGGGLVQPGGSLRLSCAASGFTFSWYEMYWVRQAPGKGLEWVSSISPSGGWTMYADSVKGRFTISRDNSKNTLYLQMNSLRAEDTAVYYCATPLYSSDYLSAGDIWGQGTMVTVSSASTKGPSVFPLAPSSKSTSGGTAALGCLVKDYFPEPVTVSWNSGALTSGVHTFPAVLQSSGLYSLSSVVTVPSSSLGTQTYICNVNHKPSNTKVDKRVEPKSCDKTHTCPPCPAPEAAGGPSVFLFPPKPKDTLMISRTPEVTCVVVDVSHEDPEVKFNWYVDGVEVHNAKTKPREEQYNSTYRVVSVLTVLHQDWLNGKEYKCKVSNKALPAPIEKTISKAKGQPREPQVYTLPPSREEMTKNQVSLTCLVKGFYPSDIAVEWESNGQPENNYKTTPPVLDSDGSFFLYSKLTVDKSRWQQGNVFSCSVMHEALHNAYTQKSLSLSPGKGGGGSGGGGSEIVLTQSPGTLSLSPGERATLSCRASQSITGSYLAWYQQKPGQAPRLLITGASSWATGIPDRFSGSGSGTDFTLTISRLEPEDFAVYYCQQYSSSPITFGCGTRLEIKGGGGSGGGGSGGGGSGGGGSQVQLVESGGGVVQPGRSLRLSCAASGFTFTNYGMHWVRQAPGKCLEWVAVISHEGNNKYYVDSVKGRFTISRDNSKNTLYLQMNSLRAEDTAVYYCAREGIDFWSGLNWFDPWGQGTLVTVS
light: EIVLTQSPATLSLSPGERATLSCRASQSVHSSYLAWYQQKPGQAPRLLIYGASSRATGIPDRFSGSGSGTDFTLTISRLEPEDFAVYYCQQSYRTPSFGQGTRLEIKRTVAAPSVFIFPPSDEQLKSGTASVVCLLNNFYPREAKVQWKVDNALQSGNSQESVTEQDSKDSTYSLSSTLTLSKADYEKHKVYACEVTHQGLSSPVTKSFNRGEC
As usually defined, the Kd is the free concentration of one partner at which half of the binding sites on the other are occupied at equilibrium, for simple one-to-one binding. Regarding B1, the Kd in assay [1] turned out to be 40.5 nM; in assay [2], 30.4 nM.

B2: ABP 201 (bispecific antibody)
heavy: B1 heavy
light: B1 light
Regarding B2, the Kd stood at 2.06 nM in assay [3], 29.8 nM in assay [4] and 0.62 nM in assay [5].
